IntAct's records for PubMed 21505419

B1: Suppressor protein STP22 of temperature-sensitive alpha-factor receptor and arginine permease (Saccharomyces cerevisiae), P25604 (parent)
chain: MSANGKISVPEAVVNWLFKVIQPIYNDGRTTFHDSLALLDNFHSLRPRTRVFTHSDGTPQLLLSIYGTISTGEDGSSPHSIPVIMWVPSMYPVKPPFISINLENFDMNTISSSLPIQEYIDSNGWIALPILHCWDPAAMNLIMVVQELMSLLHEPPQDQAPSLPPKPNTQLQQEQNTPPLPPKPKSPHLKPPLPPPPPPQPASNALDLMDMDNTDISPTNHHEMLQNLQTVVNELYREDVDYVADKILTRQTVMQESIARFHEIIAIDKNHLRAVEQAIEQTMHSLNAQIDVLTANRAKVQQFSSTSHVDDEDVNSIAVAKTDGLNQLYNLVAQDYALTDTIECLSRMLHRGTIPLDTFVKQGRELARQQFLVRWHIQRITSPLS
partner: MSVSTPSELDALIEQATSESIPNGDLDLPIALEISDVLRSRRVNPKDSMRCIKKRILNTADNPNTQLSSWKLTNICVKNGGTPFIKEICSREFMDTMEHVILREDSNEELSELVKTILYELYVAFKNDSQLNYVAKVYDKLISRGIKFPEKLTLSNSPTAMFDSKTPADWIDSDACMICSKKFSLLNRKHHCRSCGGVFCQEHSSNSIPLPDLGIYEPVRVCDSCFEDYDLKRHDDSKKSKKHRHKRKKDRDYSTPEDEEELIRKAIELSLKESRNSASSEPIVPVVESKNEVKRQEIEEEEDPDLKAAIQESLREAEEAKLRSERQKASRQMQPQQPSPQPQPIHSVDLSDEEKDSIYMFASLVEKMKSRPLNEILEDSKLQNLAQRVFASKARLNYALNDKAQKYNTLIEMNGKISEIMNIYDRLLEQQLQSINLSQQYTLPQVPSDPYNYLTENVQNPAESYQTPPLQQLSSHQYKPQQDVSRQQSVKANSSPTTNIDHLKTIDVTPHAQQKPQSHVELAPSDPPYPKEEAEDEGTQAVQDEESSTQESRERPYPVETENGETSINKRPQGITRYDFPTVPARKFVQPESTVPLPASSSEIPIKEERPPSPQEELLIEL

Variants of: B1
Settings: with vps27_yeast VPS27, P40343

Variant	effect of a mutation on the interaction
L61N	decreasing interaction

Variants of: B1
Settings: with vps27_yeast VPS27, P40343
Remark: another data set of the same source

Variant	effect of a mutation on the interaction
W16A	disrupting interaction

Variants of: B1
Settings: with vps27_yeast VPS27, P40343
Remark: another data set of the same source

Variant	effect of a mutation on the interaction
T49V	decreasing interaction
